Biological target: the molecule itself
Assay: SEC

B1: Vibrio cholerae HlyU (VcHlyU), transcriptional activator of hlyA (natural protein)
chain: MPYLKGAPMNLQEMEKNSAKAVVLLKAMANERRLQILCMLLDNELSVGELSSRLELSQSALSQHLAWLRRDGLVNTRKEAQTVFYTLSSTEVKAMIELLHRLYCQANQ
stoichiometry N: 2

Reference: paper PMC10054925 (bioRxiv, 2023)
